Key:
Format in all cases: cell-based, human
[1] = test system: CFPAC1 cells; experiment: Doubling time after ligand treatment; settings: after 7 day ligand treatment, versus untreated
Description: Cells were plated and treated with ligand for 7 days. On day 7, cells were counted and re-plated on 6 cm cell culture dishes. On days 3, 5, 7, 10 and 12, cells were trypsinized and counted to determine the total number of cells in the dish, in duplicate. Doubling time was calculated using the multiple time point method on the website www.doubling-time.com.

[2] = test system: CFPAC-1 cells; experiment: Cell morphology by light microscopy; settings: treated 7 days; versus untreated cells that formed colonies
Description: The CFPAC1 cell line was cultured in DMEM media (Gibco #11960) supplemented with 10% FBS (Sigma), 2 mM L Glutamine (Gibco), at 37° C., 5% CO2. For 7 day treatments, cells were seeded on tissue culture plastic in complete growth media and allowed to attach overnight at cell densities that would provide approximately 60-80% confluence at end of experiment. Ligand and/or inhibitor was added the following day (Day 0) in complete growth media and incubated at 37° C., 5% CO2. Ligand source and concentrations used are as follows: [1] From R&D systems, SDF-1α (stromal derived factor-1 alpha) at 100 ng/ml, TRANCE (TNF-related activation induced cytokine) at 50 ng/ml, FGF1 (fibroblast growth factor acidic) at 10 ng/ml, FGF2 (fibroblast growth factor basic) at 10 ng/ml, BMP4 (bone morphogenetic protein 4) at 100 ng/ml, BMP7 (bone morphogenetic protein 7) at 100 ng/ml, IGF2 (insulin-like growth factor 2) at 100 ng/ml, OSM (Oncostatin M) at 100 ng/ml, NRG1 (Neuregulin-1) at 50 ng/ml, PDGFaa (Platelet derived growth factor a) at 50 ng/ml, PDGFbb (platelet derive growth factor b) at 30 ng/ml, Ang2 (Angiopoeitin 2) at 400 ng/ml, amphiregulin at 100 ng/ml, HMGB 1 (Human high-mobility group box 1 protein) at 50 ng/ml; [2] […]

[3] = test system: CFPAC1 cells; experiment: 2D immunofluorescence of E-cadherin and vimentin; settings: cells treated 7 days with ligand, compared to untreated cells
Description: Cells were plated on coverslips and stimulated with ligand the following day (day 0). On day 4, medium and ligands were refreshed. After 7 days, the cells were fixed in 4% paraformaldehyde (EMS#15701)/PBS (Gibco #14190) for 10 minutes at room temperature, and then permeabilized in 0.1% Triton X-100 (Sigma #P1379)/PBS for 10 minutes. Cells were blocked in 3% BSA/PBS for one hour and incubated in primary antibody solution (E-cadherin, Santa Cruz #sc21791 and Vimentin, Chemicon #AB5733 in blocking buffer) for two hours at room temperature. Cells were washed in PBS and incubated in secondary antibody (Invitrogen #A11029 and Chemicon #AP194R) for one hour followed by nuclear counterstain TO-PRO3 (Invitrogen #T3605). Coverslips were mounted on slides with Pro-Long Gold antifade reagent (Invitrogen P36934). Images were captured on a Leica DMRXE microcope with SP2 scanner using Leica Confocal Software.

[4] = test system: CFPAC-1 cells; experiment: MET/EMT reversion experiment (ligand withdrawal); settings: ligand 14 days, then removed; morphology and E-cadherin/vimentin immunoblot
Description: Cells were cultured in complete medium with and without ligand for 14 days, during which time the media and ligand treatment was replaced every 3-4 days. 3 Days prior to the first time point (Day 14), cells were trypsinised, counted and seeded into plastic 35 mm dishes at appropriate seeding densities for the first 3 collection time points. 3 Days prior to the last of the 3 collection time points, the procedure was repeated for the second 3 collection time points, and so on until all time points were collected. Ligand was removed from all cultures at Day 14. At the time of harvest, cells were harvested as described in the western blotting section above. All samples were micro-centrifuged and stored at −80° C. until the end of the experiment, at which time all samples were processed for western blotting.

B1: OSM: Oncostatin M from R&D systems, used at 100 ng/ml (protein, UniProt P13725 26-221, looked up)
Oncostatin-M: AAIGSCSKEYRVLLGQLQKQTDLMQDTSRLLDPYIRIQGLDVPKLREHCRERPGAFPSEETLRGLGRRGFLQTLNATLGCVLHRLADLEQRLPKAQDLERSGLNIEDLEKLQMARPNILGLRNNIYCMAQLLDNSDTAEPTKAGRGASQPPTPTPASDAFQRKLEGCRFLHGYHRFMHSVGRVFSKWGESPNRSRR
[1]
  Increase of doubling time: approximately 50%
[2]
  Cell morphology: less compact with more elongated cell morphology
[3]
  E-cadherin and vimentin staining: strong vimentin staining with no E-cadherin
[4]
  Reversal of EMT upon withdrawal of ligand: can be reversed
